{"source": "patent US7968692B2", "about": "“Elongase genes and uses thereof” (Abbott Laboratories, priority 1998, dated 2011)", "molecules": {"B1": {"name": "MAELO: Mortierella alpina elongase encoded by MAELO cDNA (SEQ ID NO:1), expressed in S. cerevisiae 334 from pRAE-5 (protein, listed as Mortierella alpina)", "chain": "MAAAILDKVNFGIDQPFGIKLDTYFAQAYELVTGKSIDSFVFQEGVTPLSTQREVAMWTITYFVVIFGGRQIMKSQDAFKLKPLFILHNFLLTIASGSLLLLFIENLVPILARNGLFYAICDDGAWTQRLELLYYLNYLVKYWELADTVFLVLKKKPLEFLHYFHHSMTMVLCFVQLGGYTSVSWVPITLNLTVHVFMYYYYMRSAAGVRIWWKQYLTTLQIVQFVLDLGFIYFCAYTYFAFTYFPWAPNVGKCAGTEGAALFGCGLLSSYLLLFINFYRITYNAKAKAAKERGSNFTPKTVKSGGSPKKPSKSKHI"}}, "assay_type_in_all_cases": "cell-based, Saccharomyces cerevisiae", "key": {"S. cerevisiae 334 [1]": {"system": "S. cerevisiae 334", "test": "Expression of M. alpina elongase (MAELO) cDNA in baker's yeast, GC-FAME analysis of lipid fraction", "conditions": "substrate GLA; 40-48 hours at 25° C.", "text": "The constructs pRAE-5, and pRAE-6 were transformed into S. cerevisiae 334 (Hoveland et al., Gene 83:57-64 (1989)) and screened for elongase activity. The plasmid pCGN7875 (Calgene LLC, Davis, Calif.) containing jojoba KCS gene in pYES2 vector (Invitrogen Corp., Carlsbad, Calif.) was used as a positive control. The substrate used to detect elongase activity in M. alpina elongase (MAELO) was GLA and that in jojoba KCS was oleic acid (OA). The negative control strain was S. cerevisiae 334 containing pYX242 vector. The cultures were grown for 40-48 hours at 25° C., in selective media (Ausubel et al., Short Protocols in Molecular Biology, Ch. 13, p. 3-5 (1992)), in the presence of a particular substrate. The expression of the jojoba KCS gene cloned in pYES2 was under the control of GAL1 promoter, while the promoter in pYX242 is TP1, which is constitutive. […] The GC-FAME analysis of the lipid fraction of each cell pellet was performed as previously described (Knutzon et al., supra).\nThe jojoba KCS elongates long chain monounsaturated fatty acids 18:1n-9 to 20:1n-9. […] The activity of the M. alpina elongase, elongation (MAELO) of long chain monounsaturated and saturated fatty acids, is seen in the conversion of 18:1n-9 to 20:1n-9 and also in the synthesis of 24:0. The control strain, 334(pYX242) has very little or no detectable amount of 20:1 and 24:0 (see FIG. 10A). […]"}, "S. cerevisiae 334 [2]": {"system": "S. cerevisiae 334", "test": "MAELO co-expressed with Δ5-desaturase (pCGR-4) in yeast, AA production", "conditions": "25 μM GLA; pRAE-5 and pCGR-4 co-transformed; FIG. 11", "method": "Once 20:3n-6 is generated by the M. alpina elongase (MAELO), the Δ5-desaturase can convert it to AA in the desired expression system. To test this hypothesis, the constructs pRAE-5 and pCGR-4 (a Δ5-desaturase containing plasmid) were co-transformed into S. cerevisiae 334 and screened for AA production. The substrate used was 25 μM GLA (18:3n-6). If the M. alpina elongase (MAELO) is active in yeast, then the substrate will be converted to DGLA(20:3n-6), which the Δ5-desaturase will convert to AA(20:4n-6)."}, "S. cerevisiae 334 [3]": {"system": "S. cerevisiae 334", "test": "Comparison of MAELO and S. cerevisiae ELO2 PUFA elongase activity in baker's yeast", "conditions": "25 μM GLA", "text": "The ELO2 gene encoding for the yeast elongase was cloned from an S. cerevisiae genomic library (Origene, Rockville, Md.) using the primers RO514 (SEQ ID NO: 94) (5′-GGCTATGGATCCATGAATTCACTCGTTACTCAATATG-3′) and RO515 (SEQ ID NO: 95)(5′-CCTGCCAAGCTTTTACCTTTTTCTTCTGTGTTGAG-3′) incorporating the restriction sites (underlined) BamHI and HindIII (respectively). The ELO2 gene was cloned into the vector pYX242 at the BamHI and HindIII sites, designated pRELO, transformed into the S. cerevisiae host 334 (Hoveland et al., supra) and screened for PUFA elongase activity. The vector plasmid was used as a negative control and 334(pRAE-5) was grown to compare the PUFA elongase activity. The cultures were grown as previously described with no galactose in the media and 25 μM GLA added as a substrate. […] Additionally, when DGLA produced is expressed as a percent of the total lipids (shown in parenthesis, FIG. 12), the clones 334(pRELO-1) and 334 (pRELO-2) produced 0.153% and 0.2% DGLA respectively, while 334(pYX242) produced 0.185% DGLA. […] The M. alpina PUFA elongase activity is specific for this conversion as evidenced by the higher amount of DGLA produced compared to the control, 334(pYX242)."}, "SC334": {"system": "SC334", "test": "MAD (M. alpina direct) cDNA expression library screening in yeast, GLA to DGLA", "method": "To screen the library, the glycerol stocks were thawed and approximately 0.5 ml was added to 5 ml of liquid selective media lacking uracil (Ausubel et al., supra) and grown at 30° C. for 24 hours. The culture was then transferred into 50 ml of liquid selective medium lacking uracil with 2% galactose and 25 (D)M GLA (substrate for the elongase enzyme) for 24 hours at 25° C. with shaking. The GC-FAME analysis of the lipid content in the cell pellet of each induced culture was performed as previously described (Knutzon et al., supra). The MAELO (pRAE-5 in pYX242 grown in selective media lacking leucine) was used as a positive control in each batch run. MAELO had consistently been able to convert 1.5% of GLA to DGLA (see Example III).\nAfter screening and analyzing approximately 750 individual pools by GC-FAME analysis, as described in Example VIII, one pool of five colonies (i.e., MAD708) appeared to have significant enzymatic activity in converting GLA to DGLA. […] This pool was tested again under identical assay conditions to confirm the initial findings. […] Since MAD708 was a pool of five different clones, it was necessary to isolate the individual cDNA clone which encoded for elongase activity from this pool. To do this, the original MAD708 glycerol stock was plated onto a selective media agar plate lacking uracil (Ausubel et al., supra). […]"}}}
{"molecule": "B1", "values": [{"measurement": "percentage of 20:3n-6 in total lipid", "setting": "S. cerevisiae 334 [1]", "result": 0.324, "unit": "%"}, {"measurement": "total amount of 20:3n-6 produced", "setting": "S. cerevisiae 334 [1]", "result": 2.504, "unit": "µg"}, {"measurement": "AA production", "setting": "S. cerevisiae 334 [2]", "result": "confirm the production of AA"}, {"measurement": "increase of percent DGLA over 334(pYX242) (negative control)", "setting": "S. cerevisiae 334 [3]", "result": 50.8, "unit": "%"}, {"measurement": "DGLA produced as a percent of the total lipids", "setting": "S. cerevisiae 334 [3]; FIG. 12", "result": 0.279, "unit": "%"}, {"measurement": "amount of 20:3n-6 or DGLA produced relative to negative control pYX242", "setting": "S. cerevisiae 334 [3]; FIG. 12", "result": "approximately 4 times"}, {"measurement": "conversion of GLA to DGLA", "setting": "SC334; individual clones of MAD708 pool, FIG. 20", "result": 3.4, "unit": "%"}, {"measurement": "conversion of GLA to DGLA", "setting": "SC334; positive control in each batch run of library screening", "result": 1.5, "unit": "%"}]}
